Experimental data as given in IntAct's records for PubMed 10409688.

B1: Eukaryotic initiation factor 4F subunit p150 (Saccharomyces cerevisiae), P39935 (parent)
chain: MTDETAHPTQSASKQESAALKQTGDDQQESQQQRGYTNYNNGSNYTQKKPYNSNRPHQQRGGKFGPNRYNNRGNYNGGGSFRGGHMGANSSNVPWTGYYNNYPVYYQPQQMAAAGSAPANPIPVEEKSPVPTKIEITTKSGEHLDLKEQHKAKLQSQERSTVSPQPESKLKETSDSTSTSTPTPTPSTNDSKASSEENISEAEKTRRNFIEQVKLRKAALEKKRKEQLEGSSGNNNIPMKTTPENVEEKGSDKPEVTEKTKPAEEKSAEPEVKQETPAEEGEQGEKGQIKEESTPKVLTFAERLKLKKQQKEREEKTEGKENKEVPVQEETKSAIESAPVPPSEQVKEETEVAETEQSNIDESATTPAIPTKSDEAEAEVEAEAGDAGTKIGLEAEIETTTDETDDGTNTVSHILNVLKDATPIEDVFSFNYPEGIEGPDIKYKKEHVKYTYGPTFLLQFKDKLNVKADAEWVQSTASKIVIPPGMGRGNRSRDSGRFGNNSSRGHDFRNTSVRNMDDRANSRTSSKRRSKRMNDDRRSNRSYTSRRDRERGSYRNEEKREDDKPKEEVAPLVPSANRWVPKFKSKKTEKKLAPDGKTELLDKDEVERKMKSLLNKLTLEMFDAISSEILAIANISVWETNGETLKAVIEQIFLKACDEPHWSSMYAQLCGKVVKELNPDITDETNEGKTGPKLVLHYLVARCHAEFDKGWTDKLPTNEDGTPLEPEMMSEEYYAAASAKRRGLGLVRFIGFLYRLNLLTGKMMFECFRRLMKDLTDSPSEETLESVVELLNTVGEQFETDSFRTGQATLEGSQLLDSLFGILDNIIQTAKISSRIKFKLIDIKELRHDKNWNSDKKDNGPKTIQQIHEEEERQRQLKNNSRSNSRRTNNSSNRHSFRRDAPPASKDSFITTRTYSQRNSQRAPPPKEEPAAPTSTATNMFSALMGESDDEE
partner: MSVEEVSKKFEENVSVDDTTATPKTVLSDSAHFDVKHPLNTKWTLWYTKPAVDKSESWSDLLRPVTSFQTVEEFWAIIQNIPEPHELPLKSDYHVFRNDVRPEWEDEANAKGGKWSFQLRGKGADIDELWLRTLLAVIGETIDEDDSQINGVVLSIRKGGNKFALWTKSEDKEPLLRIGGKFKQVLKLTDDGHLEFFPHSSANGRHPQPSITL

Variants of: B1
Settings: with if4e_yeast CDC33, P07260

Effect of a mutation on the interaction, decreasing interaction:
L457A;L458A
K444A
E425D
